In article PMC4215650 (Nature, 2014):

B1: Ring1B(2-116), as it stands in the crystal (domain or fragment)
chain: SQAVQTNGTQPLSKTWELSLYELQRTPQEAITDGLEIVVSPRSLHSELMCPICLDMLKNTMTTKECLHRFCADCIITALRSGNKECPTCRKKLVSKRSLRPDPNFDALISKIYPS
B2: Bmi1(2-109), as it stands in the crystal (domain or fragment)
chain: HRTTRIKITELNPHLMCVLCGGYFIDATTIIECLHSFCKTCIVRYLETSKYCPICDVQVHKTRPLLNIRSDKTLQDIVYKLVPGLFKNEMKRRRDFYAAHPSADAANG

Legend:
Experiment in all cases: crystal structure
[1] = molecular target: histone H2B, Xenopus, in the nucleosome core particle (Xenopus, UniProt P02281 5-126)
[2] = molecular target: B1
[3] = molecular target: histone H4, Xenopus, in the nucleosome core particle (Xenopus, UniProt P62799 2-103)

binding result [1]	binding result [2]	binding result [3]	Binder
binds	–	–	B1
binds	binds	binds	B2
